From US20060110401A1, “Mixture of peptides from c and ns3 proteins of the hepatitis c virus and applications thereof” (priority 2002, published 2006)

Tests used:
[1] = target: HLA-DR7 (DRB1*0701) (human); assay: competition binding
[2] = target: HLA-DR11 (DRB1*1101) (human); assay: competition binding
[3] = target: HLA-DRB4 (DRB4*0101) (human); assay: competition binding
[4] = target: HLA-DR15 (DRB1*1501) (human); assay: competition binding
[5] = target: HLA-DR3 (DRB1*0301) (human); assay: competition binding
[6] = target: HLA-DR4 (DRB1*0401) (human); assay: competition binding
[7] = target: HLA-DRB5 (DRB5*0101) (human); assay: competition binding
[8] = target: HLA-DRB3 (DRB3*0101) (human); assay: competition binding
[9] = target: HLA-DR1 (DRB1*0101) (human); assay: competition ELISA, purified HLA II; tracer biotinylated HA 306-318

Row | Substance | IC50 [1] | IC50 [2] | IC50 [3] | IC50 [4] | IC50 [5] | IC50 [6] | IC50 [7] | IC50 [8] | IC50 [9]
1 | 9N 1036-1055 (from UniProt P26664 1036-1055) | 1250 nM | 163 nM | 150 nM | 10000 nM | 6000 nM | 60 nM | 10 nM | 35000 nM | –
2 | 28N 1524-1553 (peptide; other documents disagree on this pair) | – | – | – | – | – | – | – | – | 2 nM
